This note sets out measurements from doi:10.1101/2022.11.01.514793.

One experiment deals with AdgI (Variovorax). Description: cryo-EM structure.
Experiment [1] addresses AdgH (Variovorax). The experiment is described as follows: SEC.
The target of experiment [2] is AdgH (Variovorax). Description: cryo-EM structure.

For AdgI (enzyme), the stoichiometry N (in general, the number of molecules, sites or subunits per partner or assembly) with AdgI (Variovorax) was found to be 3. Further, the stoichiometry N (AdgI:AdgH molar ratio) with AdgH (Variovorax) [1] was 1.

The substance AdgH (enzyme) gave a stoichiometry N in the experiment with AdgH (Variovorax) [2] of 3.
